From patent publication US20040180380A1

Key:
antibody C1 [1] = assay: peptide competition ELISA; reference YEVQGEVF
antibody C1 [2] = assay: peptide competition ELISA; competitor for C1
antibody C1 [3] = assay: peptide competition ELISA; free peptide competes with coated target peptide for C1
antibody P1 [4] = assay: peptide competition ELISA; competitor for P1
antibody P1 [5] = assay: peptide competition ELISA; reference EPAELTDA

fold higher concentration (ineffective) than the antigen PET's half-maximum (antibody C1 [1]) [fold]	IC50 (antibody C1 [2]) [µM]	IC50 (antibody C1 [3]) [µM]	IC50 (antibody P1 [4]) [µM]	fold higher concentration (ineffective) than the antigen PET's half-maximum (antibody P1 [5]) [fold]	Binder
> 1000	> 1000				YEVLGEEF [nearest-neighbor 8-mer YEVLGEEF]
		1			YEVQGEVF [CRP-derived 8-mer PET sequence YEVQGEVF]
> 1000	> 1000				VEVNGEVF [nearest-neighbor 8-mer VEVNGEVF]
			> 1000	25000	EPVELTSA [nearest-neighbor 8-mer EPVELTSA]
			> 1000	25000	DPTQLTDA [nearest-neighbor 8-mer DPTQLTDA]
